# Experimental data: paper PMC3090699 (Amino acids, 2010)
# B1: methionine adenosyltransferase from Methanococcus jannaschii, wild type (enzyme, UniProt Q58605 1-406, looked up)
# chain: MRNIIVKKLDVEPIEERPTEIVERKGLGHPDSICDGIAESVSRALCKMYMEKFGTILHHNTDQVELVGGHAYPKFGGGVMVSPIYILLSGRATMEILDKEKNEVIKLPVGTTAVKAAKEYLKKVLRNVDVDKDVIIDCRIGQGSMDLVDVFERQKNEVPLANDTSFGVGYAPLSTTERLVLETERFLNSDELKNEIPAVGEDIKVMGLREGKKITLTIAMAVVDRYVKNIEEYKEVIEKVRKKVEDLAKKIADGYEVEIHINTADDYERESVYLTVTGTSAEMGDDGSVGRGNRVNGLITPFRPMSMEAASGKNPVNHVGKIYNILANLIANDIAKLEGVKECYVRILSQIGKPINEPKALDIEIITEDSYDIKDIEPKAKEIANKWLDNIMEVQKMIVEGKVTTF
# Target: the molecule itself
# Assay: SEC
protein,measurement,value
B1,stoichiometry N,2
